# ± gives the standard deviation of the averaged measurements.
# Assay: total protein half-life in vivo (active degradation + dilution); higher = more stable protein
# [1] = E. coli NCM3722 delta-clpP delta-lon delta-hslV, growth: N-lim chemostat, doubling time 6 h
# [2] = E. coli NCM3722 delta-clpP, growth: N-lim chemostat, doubling time 6 h
# [3] = E. coli NCM3722 delta-hslV, growth: N-lim chemostat, doubling time 6 h
# [4] = E. coli NCM3722 delta-smpB, growth: N-lim chemostat, doubling time 6 h
# [5] = wild type E. coli NCM3722, growth: C-lim chemostat, doubling time 3 h
# [6] = wild type E. coli NCM3722, growth: C-lim chemostat, doubling time 6 h
# [7] = wild type E. coli NCM3722, growth: C-lim chemostat, doubling time 12 h
# [8] = wild type E. coli NCM3722, growth: N-lim chemostat, doubling time 6 h
# [9] = E. coli NCM3722 delta-lon, growth: N-lim chemostat, doubling time 6 h
# [10] = wild type E. coli NCM3722, growth: N-lim chemostat, doubling time 12 h
# [11] = wild type E. coli NCM3722, growth: P-lim chemostat, doubling time 6 h
# [12] = wild type E. coli NCM3722, growth: P-lim chemostat, doubling time 12 h
Sequence,total protein half-life in vivo [1],total protein half-life in vivo [2],total protein half-life in vivo [3],total protein half-life in vivo [4],total protein half-life in vivo [5],total protein half-life in vivo [6],total protein half-life in vivo [7],total protein half-life in vivo [8],total protein half-life in vivo [9],total protein half-life in vivo [10],total protein half-life in vivo [11],total protein half-life in vivo [12]
MSSLINNAMSGLNAAQAALNTASNNISSYNVAGYTRQTTIMAQANSTLGAGGWVGNGVYVSGVQREYDAFITNQLRAAQTQSSGLTARYEQMSKIDNMLSTSTSSLATQMQDFFTSLQTLVSNAEDPAARQALIGKSEGLVNQFKTTDQYLRDQDKQVNIAIGASVDQINNYAKQIASLNDQISRLTGVGAGASPNNLLDQRDQLVSELNQIVGVEVSVQDGGTYNITMANGYSLVQGSTARQLAAVPSSADPSRTTVAYVDGTAGNIEIPEKLLNTGSLGGILTFRSQDLDQTRNTLGQLALAFAEAFNTQHKAGFDANGDAGEDFFAIGKPAVLQNTKNKGDVAIGATVTDASAVLATDYKISFDNNQWQVTRLASNTTFTVTPDANGKVAFDGLELTFTGTPAVNDSFTLKPVSDAIVNMDVLITDEAKIAMASEEDAGDSDNRNGQALLDLQSNSKTVGGAKSFNDAYASLVSDIGNKTATLKTSSATQGNVVTQLSNQQQSISGVNLDEEYGNLQRFQQYYLANAQVLQTANAIFDALINIR,3.99 ± 0.38 h,> 8 h,> 8 h,> 8 h,0.385 ± 0.15 h,0.323 ± 0.065 h,0.835 ± 0.28 h,5.22 ± 0.16 h,–,–,–,–
MKRSLLFSAVLCAASLTSVHAAQPITEPEFASDIVDRYADHIFYGSGATGMALVVIDGNQRVFRSYGETRPGNNVRPQLDSVVRIASLTKLMTSEMLVKLLDQGTVKLNDPLSKYAPPGARVPTYNGTPITLVNLATHTSALPREQPGGAAHRPVFVWPTREQRWKYLSTAKLKAAPGSQAAYSNLAFDLLADALANASGKPYTQLFEEQITRPLGMKDTTYTPSPDQCRRLMVAERGASPCNNTLAAIGSGGVYSTPGDMMRWMQQYLSSDFYQRSNQADRMQTLIYQRAQFTKVIGMDVPGKADALGLGWVYMAPKEGRPGIIQKTGGGGGFITYMAMIPQKNIGAFVVVTRSPLTRFKNMSDGINDLVTELSGNKPLVIPAS [P0AD70],3.75 ± 0.98 h,2.49 ± 0.33 h,3.37 ± 0.26 h,3.17 ± 0.11 h,1.96 ± 0.34 h,3.73 ± 0.71 h,5.69 ± 1.3 h,3.96 ± 1 h,3.68 ± 0.084 h,5.33 ± 0.35 h,3.62 ± 0.42 h,6.14 ± 1.1 h
MQQIARSVALAFNNLPRPHRVMLGSLTVLTLAVAVWRPYVYHRDATPIVKTIELEQNEIRSLLPEASEPIDQAAQEDEAIPQDELDDKIAGEAGVHEYVVSTGDTLSSILNQYGIDMGDITQLAAADKELRNLKIGQQLSWTLTADGELQRLTWEVSRRETRTYDRTAANGFKMTSEMQQGEWVNNLLKGTVGGSFVASARNAGLTSAEVSAVIKAMQWQMDFRKLKKGDEFAVLMSREMLDGKREQSQLLGVRLRSEGKDYYAIRAEDGKFYDRNGTGLAKGFLRFPTAKQFRISSNFNPRRTNPVTGRVAPHRGVDFAMPQGTPVLSVGDGEVVVAKRSGAAGYYVAIRHGRSYTTRYMHLRKILVKPGQKVKRGDRIALSGNTGRSTGPHLHYEVWINQQAVNPLTAKLPRTEGLTGSDRREFLAQAKEIVPQLRFD [P0AFS9],3.29 h,–,6.32 h,–,0.826 ± 0.34 h,3.3 ± 0.13 h,6.19 h,5.39 h,–,–,–,–
MMINVQTVAVIGSGTMGAGIAEVAASHGHQVLLYDISAEALTRAIDGIHARLNSRVTRGKLTAETCERTLKRLIPVTDIHALAAADLVIEAASERLEVKKALFAQLAEVCPPQTLLTTNTSSISITAIAAEIKNPERVAGLHFFNPAPVMKLVEVVSGLATAAEVVEQLCELTLSWGKQPVRCHSTPGFIVNRVARPYYSEAWRALEEQVAAPEVIDAALRDGAGFPMGPLELTDLIGQDVNFAVTCSVFNAFWQERRFLPSLVQQELVIGGRLGKKSGLGVYDWRAEREAVVGLEAVSDSFSPMKVEKKSDGVTEIDDVLLIETQGETAQALAIRLARPVVVIDKMAGKVVTIAAAAVNPDSATRKAIYYLQQQGKTVLQIADYPGMLIWRTVAMIINEALDALQKGVASEQDIDTAMRLGVNYPYGPLAWGAQLGWQRILRLLENLQHHYGEERYRPCSLLRQRALLESGYES,> 8 h,–,–,–,–,–,–,–,–,–,–,–
MQVLPPSSTGGPSRLFIMRPVATTLLMVAILLAGIIGYRALPVSALPEVDYPTIQVVTLYPGASPDVMTSAVTAPLERQFGQMSGLKQMSSQSSGGASVITLQFQLTLPLDVAEQEVQAAINAATNLLPSDLPNPPVYSKVNPADPPIMTLAVTSTAMPMTQVEDMVETRVAQKISQISGVGLVTLSGGQRPAVRVKLNAQAIAALGLTSETVRTAITGANVNSAKGSLDGPSRAVTLSANDQMQSAEEYRQLIIAYQNGAPIRLGDVATVEQGAENSWLGAWANKEQAIVMNVQRQPGANIISTADSIRQMLPQLTESLPKSVKVTVLSDRTTNIRASVDDTQFELMMAIALVVMIIYLFLRNIPATIIPGVAVPLSLIGTFAVMVFLDFSINNLTLMALTIATGFVVDDAIVVIENISRYIEKGEKPLAAALKGAGEIGFTIISLTFSLIAVLIPLLFMGDIVGRLFREFAITLAVAILISAVVSLTLTPMMCARMLSQESLRKQNRFSRASEKMFDRIIAAYGRGLAKVLNHPWLTLSVALSTLLLSVLLWVFIPKGFFPVQDNGIIQGTLQAPQSSSFANMAQRQRQVADVILQDPAVQSLTSFVGVDGTNPSLNSARLQINLKPLDERDDRVQKVIARLQTAVDKVPGVDLFLQPTQDLTIDTQVSRTQYQFTLQATSLDALSTWVPQLMEKLQQLPQLSDVSSDWQDKGLVAYVNVDRDSASRLGISMADVDNALYNAFGQRLISTIYTQANQYRVVLEHNTENTPGLAALDTIRLTSSDGGVVPLSSIAKIEQRFAPLSINHLDQFPVTTISFNVPDNYSLGDAVQAIMDTEKTLNLPVDITTQFQGSTLAFQSALGSTVWLIVAAVVAMYIVLGILYESFIHPITILSTLPTAGVGALLALLIAGSELDVIAIIGIILLIGIVKKNAIMMIDFALAAEREQGMSPREAIYQACLLRFRPILMTTLAALLGALPLMLSTGVGAELRRPLGIGMVGGLIVSQVLTLFTTPVIYLLFDRLALWTKSRFARHEEEA,6.53 ± 0.31 h,6.24 ± 0.12 h,6.58 ± 0.74 h,5.45 ± 0.45 h,2.98 h,6.17 ± 0.74 h,–,6.15 ± 0.94 h,6.07 ± 0.56 h,13.1 ± 0.4 h,7.07 ± 0.49 h,12.347 ± 0.0014 h
MNMTKGALILSLSFLLAACSSIPQNIKGNNQPDIQKSFVAVHNQPGLYVGQQARFGGKVINVINGKTDTLLEISVLPLDSYAKPDIEANYQGRLLARQSGFLDPVNYRNHFVTILGTIQGEQPGFINKVPYNFLEVNMQGIQVWHLREVVNTTYNLWDYGYGAFWPEPGWGAPYYTNAVSQVTPELVK,–,6.72 ± 0.84 h,6.43 ± 0.72 h,6.62 ± 0.25 h,–,–,14.6 h,–,–,12.8 ± 0.086 h,5.75 ± 0.59 h,12.6 ± 1 h
MDRFPRSDSIVQPRAGLQTYMAQVYGWMTVGLLLTAFVAWYAANSAAVMELLFTNRVFLIGLIIAQLALVIVLSAMIQKLSAGVTTMLFMLYSALTGLTLSSIFIVYTAASIASTFVVTAGMFGAMSLYGYTTKRDLSGFGNMLFMALIGIVLASLVNFWLKSEALMWAVTYIGVIVFVGLTAYDTQKLKNMGEQIDTRDTSNLRKYSILGALTLYLDFINLFLMLLRIFGNRR [P0AAC4],–,3.08 h,–,2.75 h,2.15 ± 0.5 h,2.98 h,6.02 h,3.09 h,2.51 h,5.33 h,3.85 ± 0.28 h,6.88 ± 0.24 h
